Experimental data published in patent US20240115719A1, “COMPOUND OR SALT THEREOF, AND ANTIBODY OBTAINED BY USING THE SAME” (priority 2021, published 2024).

Assay: Stability test of ADC mimic in rat plasma (eliminated fluorescent molecules by HPLC/fluorescence detection)
Assay type: in vitro ADME
Details: ADC mimic 0.1 mg/mL, 37° C. for 4 days vs -80° C. (Day 0 = 100%)
Description: Blood stability of various ADC mimics was assessed by analyzing the amounts of fluorescent molecules that were reduced from ADC mimic when ADC mimic was incubated in rat blood as described below.
Sterile filtration was performed on 700 μL of rat plasma (Charles River) after ADC mimic was added to it so as to be 0.1 mg/mL. The solution was dispensed into six Eppen tubes in 50 μL portions. Three of the six samples were stored in an incubator set at 37° C. for 4 days. The remaining three were also stored in a −80° C. freezer for 4 days. 100 μL of acetonitrile was added to each sample, and the mixture was vortexed and centrifuged to obtain a precipitate. The resulting supernatant was collected and analyzed by HPLC.
The determination was made using a liquid chromatography/fluorescence detection method to determine the amount of fluorescence molecules that had eliminated from ADC mimic.
A lower rate of increase indicates higher stability in plasma.
Increase in fluorescence intensity of fluorescent molecules eliminated from Example ADC mimic=[(Day=4 fluorescence intensity)−(Day=0 fluorescence intensity)].
Increase in fluorescence intensity of fluorescent molecules eliminated from Control ADC mimic=[(Day=4 fluorescence intensity)−(Day=0 fluorescence intensity)].
Carboxyrhodamine 110-PEG4-DBCO was separately used to calculate the colleration between area-area of fluorescent intensity and concentration for HPLC. An increase in the fluorescent intensity of the respective ADC mimic was converted into a concentration by using the calculation equation. When the concentration of Day 0 was taken as 100%, the percentage of the concentration of the above increase was calculated as the elimination rate.

SMILES | Elimination rate of fluorescence molecule at Day = 4
CCCNC(=O)c1cc(N=[N+]=[N-])cc(C(=O)NO)c1 [compound 93] | <3%
CCCNC(=O)CC[C@H](NC(=O)CCCCN=[N+]=[N-])C(=O)NO [compound 96] | <3%
CCCNC(=O)CC[C@H](NC(=O)CCCCN=[N+]=[N-])C(=O)NOC [compound 101] | <3%
CCNC(=O)CC[C@H](NC(=O)CCCCN=[N+]=[N-])C(=O)NOC [compound 102] | <3%
CCCNC(=O)C[C@H](NC(=O)COCCOCCOCCN=[N+]=[N-])C(=O)NO [compound 107] | 20%
CCCNC(=O)C[C@H](NC(=O)CCCCN=[N+]=[N-])C(=O)NO [compound 111] | 21%
